Values belong to the binder of their own block, whether it stands above or below them.
How the values were obtained:
[1] = target: T1, Recombinant Human DLL4 (R&D Systems Cat#1506-D4/CF) (human, UniProt Q9NR61 27-524); assay: MSD ECL multi-spot assay, antigen spotted on plate, Fab 0.48 uM; blank spot 2877;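 also: blank spot per well as comparator with Hit at signal to blank ratio of 4 or more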
T1 construct: Bought protein; also called delta-like protein 4; rHuman DLL4

[2] = target: T2, rHuman Notch-1/Fc Chimera, CF (R&D Systems Cat#3647-TK) (human, UniProt P46531 19-526); assay: as above
T2 construct: Bought protein; Fc part of the bought chimera not given

[3] = target: T3, rHuman Erythropoietin R/Fc Chimera, CF (R&D Systems Cat#963-ER) (human, UniProt P19235 25-250); assay: MSD ECL multi-spot assay, antigen spotted on plate, Fab 0.93 uM; blank spot 4760
T3 construct: Bought protein; also called EPOR; EPO R/Fc; Fc part of the bought chimera not given
T3 sequence: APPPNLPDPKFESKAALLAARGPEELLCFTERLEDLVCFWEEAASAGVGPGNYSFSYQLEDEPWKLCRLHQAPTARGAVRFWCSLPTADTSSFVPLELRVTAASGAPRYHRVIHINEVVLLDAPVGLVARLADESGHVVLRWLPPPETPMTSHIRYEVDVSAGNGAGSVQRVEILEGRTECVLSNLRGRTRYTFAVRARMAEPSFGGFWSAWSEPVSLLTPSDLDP

[4] = target: T4, rHuman IGF-1 sR (IGF-1 sR), CF (R&D Systems Cat#391-GR) (human, UniProt P08069 31-932); assay: as above
T4 construct: Bought soluble receptor; also called insulin-like growth factor-1 soluble receptor; IGF-R1

[5] = target: T2, rHuman Notch-1/Fc Chimera, CF (R&D …); assay: as above
[6] = target: T5, rHuman CD44/Fc Chimera, CF (R&D Systems Cat#3660-CD) (human, UniProt P16070 21-220); assay: MSD ECL multi-spot assay, antigen spotted on plate, Fab 1.57 uM; blank spot 797
T5 construct: Bought protein; Fc part of the bought chimera not given

[7] = target: T3, rHuman Erythropoietin R/Fc Chimera, CF …; assay: as above
[8] = target: T1, Recombinant Human DLL4 (R&D Systems …); assay: as above
[9] = target: T4, rHuman IGF-1 sR (IGF-1 sR), CF (R&D …); assay: as above
[10] = target: T6, rHuman ErbB2/Fc Chimera, CF (R&D Systems Cat#1129-ER) (human, UniProt P04626 23-652); assay: as above
T6 construct: Bought protein; also called HER2/neu; human epidermal growth factor 2 receptor; Fc part of the bought chimera not given

[11] = target: T2, rHuman Notch-1/Fc Chimera, CF (R&D …); assay: as above
[12] = target: T7, rHuman HGF R/c-MET/Fc Chimera, CF (R&D Systems Cat#358-MT/CF) (human, UniProt P08581 25-932); assay: as above
T7 construct: Bought protein; also called HGF R/Fc; hepatocyte growth factor receptor; Fc part of the bought chimera not given

[13] = target: T5, rHuman CD44/Fc Chimera, CF (R&D Systems …); assay: MSD ECL multi-spot assay, antigen spotted on plate, Fab 0.06 uM; blank spot 842
[14] = target: T1, Recombinant Human DLL4 (R&D Systems …); assay: as above
[15] = target: T4, rHuman IGF-1 sR (IGF-1 sR), CF (R&D …); assay: as above
[16] = target: T6, rHuman ErbB2/Fc Chimera, CF (R&D …); assay: as above
[17] = target: T8, rHuman P-Cadherin/Fc Chimera, CF (R&D Systems Cat#861-PC) (human, UniProt P22223 108-654); assay: MSD ECL multi-spot assay, antigen spotted on plate, Fab 0.28 uM; blank spot 1773
T8 construct: Bought protein; also called CDH3; Fc part of the bought chimera not given

[18] = target: T9, rHuman EGF R/Fc Chimera, CF (R&D Systems Cat#344-ER) (human, UniProt P00533 25-645); assay: MSD ECL multi-spot assay, antigen spotted on plate, Fab 0.13 uM; blank spot 786
T9 construct: Bought protein; also called epidermal growth factor receptor; Fc part of the bought chimera not given

[19] = target: T5, rHuman CD44/Fc Chimera, CF (R&D Systems …); assay: as above
[20] = target: T3, rHuman Erythropoietin R/Fc Chimera, CF …; assay: as above
[21] = target: T1, Recombinant Human DLL4 (R&D Systems …); assay: as above
[22] = target: T4, rHuman IGF-1 sR (IGF-1 sR), CF (R&D …); assay: as above
[23] = target: T6, rHuman ErbB2/Fc Chimera, CF (R&D …); assay: as above
[24] = target: T2, rHuman Notch-1/Fc Chimera, CF (R&D …); assay: as above
[25] = target: T7, rHuman HGF R/c-MET/Fc Chimera, CF (R&D …); assay: as above
[26] = target: T5, rHuman CD44/Fc Chimera, CF (R&D Systems …); assay: MSD ECL multi-spot assay, antigen spotted on plate, Fab 0.51 uM; blank spot 1393
[27] = target: T1, Recombinant Human DLL4 (R&D Systems …); assay: as above
[28] = target: T4, rHuman IGF-1 sR (IGF-1 sR), CF (R&D …); assay: as above
[29] = target: T6, rHuman ErbB2/Fc Chimera, CF (R&D …); assay: as above
[30] = target: T7, rHuman HGF R/c-MET/Fc Chimera, CF (R&D …); assay: as above

- ECL signal [3]: 16700
- ECL signal [4]: 13900
- ECL signal [5]: 23700
B2: Fab VH1-46_IGHD3-10*01_IGHJ4*01 & L12_IGKJ1*01 (Fab, V domains shown)
VH: QVQLVQSGAEVKKPGASVKVSCKASGYTFTSYYMHWVRQAPGQGLEWMGIINPSGGSTSYAQKFQGRVTMTRDTSTSTVYMELSSLRSEDTAVYYCAREYYYGSGSYYNDYFDYWGQGTLVTVSS
VL: not shown

- ECL signal [6]: 836
- ECL signal [7]: 6390
- ECL signal [8]: 1500
- ECL signal [9]: 985
- ECL signal [10]: 904
- ECL signal [11]: 1260
- ECL signal [12]: 1040
B3: Fab VH1-46_IGHD3-10*01_IGHJ4*01 & O1_IGKJ1*01 (Fab, V domains shown)
VH: B2 VH
VL: DIVMTQTPLSLPVTPGEPASISCRSSQSLLDSDDGNTYLDWYLQKPGQSPQLLIYTLSYRASGVPDRFSGSGSGTDFTLKISRVEAEDVGVYYCMQRIEFPSWTFGQGTKVEIK
notes: Fab from E. coli; VH joined to the CH1 (Flag and His tags) of Plasmid A, VL to the kappa CL of Plasmid C

- ECL signal [26]: 1880
- ECL signal [27]: 5650
- ECL signal [28]: 1740
- ECL signal [29]: 1700
- ECL signal [30]: 1740
B7: Fab VH4-34_IGHD7-27*01_IGHJ4*01 & L5_IGKJ1*01 (Fab, V domains shown)
VH: QVQLQQWGAGLLKPSETLSLTCAVYGGSFSGYYWSWIRQPPGKGLEWIGEINHSGSTNYNPSLKSRVTISVDTSKNQFSLKLSSVTAADTAVYYCARANWGDYFDYWGQGTLVTVSS
VL: DIQMTQSPSSVSASVGDRVTITCRASQGISSWLAWYQQKPGKAPKLLIYAASSLQSGVPSRFSGSGSGTDFTLTISSLQPEDFATYYCQQANSFPPWTFGQGTKVEIKR
notes: as for B3

Second part, the binder before the results:

B1: Fab VH1-46_IGHD6-13*01_IGHJ4*01 & A27_IGKJ1*01 (Fab, V domains shown)
VH: QVQLVQSGAEVKKPGASVKVSCKASGYTFTSYYMHWVRQAPGQGLEWMGIINPSGGSTSYAQKFQGRVTMTRDTSTSTVYMELSSLRSEDTAVYYCAREGYSSSWYDYFDYWGQGTLVTVSS
VL: not shown
notes: as for B3
- ECL signal [1]: 13700
- ECL signal [2]: 12800

B4: Fab VH1-3_IGHD4-23*01_IGHJ4*01 & L12_IGKJ1*01 (Fab, V domains shown)
VH: QVQLVQSGAEVKKPGASVKVSCKASGYTFTSYAMHWVRQAPGQRLEWMGWSNAGNGNTKYSQEFQGRVTITRDTSASTAYMELSSLRSEDMAVYYCARDDYGGNSDYFDYWGQGTLVTVSS
VL: not shown
- ECL signal [13]: 1680
- ECL signal [14]: 13600
- ECL signal [15]: 2320
- ECL signal [16]: 1570

B5: Fab VH1-46_IGHD2-15*01_IGHJ2*01 & L12_IGKJ1*01 (Fab, V domains shown)
VH: QVQLVQSGAEVKKPGASVKVSCKASGYTFTSYYMHWVRQAPGQGLEWMGIINPSGGSTSYAQKFQGRVTMTRDTSTSTVYMELSSLRSEDTAVYYCAREGYCSGGSCYSYWYFDLWGRGTLVTVSS
VL: not shown
- ECL signal [17]: 8060

B6: Fab VH1-8_IGHD2-2*01_IGHJ6*01 & L12_IGKJ1*01 (Fab, V domains shown)
VH: QVQLVQSGAEVKKPGASVKVSCKASGYTFTSYDINWVRQATGQGLEWMGWMNPNSGNTGYAQKFQGRVTMTRNTSISTAYMELSSLRSEDTAVYYCARGGYCSSTSCYADYYYYYGMDVWGQGTTVTVSS
VL: not shown
- ECL signal [18]: 859
- ECL signal [19]: 932
- ECL signal [20]: 1110
- ECL signal [21]: 9850
- ECL signal [22]: 1170
- ECL signal [23]: 840
- ECL signal [24]: 1320
- ECL signal [25]: 969

From patent US20120058906A1 (published 2012)
